Laboratory results reported in publication PMC7666536 (Cell, 2020).

Biological target: SARS-CoV-2 nsp12 (RNA-dependent RNA polymerase) (SARS-CoV-2, UniProt P0DTD1)
Assay: cryo-EM structure

B1: SARS-CoV-2 nsp9 (full-length, residues N1–Q113) (natural protein)
chain: NNELSPVALRQMSCAAGTTQTACTDDNALAYYNTTKGGRFVLALLSDLQDLKWARFPKSDGTGTIYTELEPPCRFVTDTPKGPKVKYLYFIKGLNNLNRGMVLGSLAATVRLQ
Q: Does B1 bind?
A: binds
